Test results taken from article PMC9356269, “A purified energy-converting hydrogenase from Thermoanaerobacter kivui demonstrates coupled H^+-translocation and reduction in vitro” (The Journal of Biological Chemistry, 2022).
One block for each molecule: values may come before it.

Columns and labels:
[1] = biological target: T1, Ech2 complex (energy-converting hydrogenase Ech2) (Thermoanaerobacter kivui, UniProt A0A097ATF1+A0A097ATH3+A0A097ATI1); test: Fd2-:H+ oxidoreductase activity, H2 by gas chromatography; format: biochemical; details: read-out: 50% inhibition
T1 construct: gene ech2A1; eight-subunit complex from T. kivui membranes (DDM), plasmid-encoded Ech2C with C-terminal 10x His tag, other subunits native; predicted monomer 248 kDa, active bands ~450 and ~520 kDa (dimer); with Energy-converting hydrogenase Ech2 subunit Ech2C; Energy-converting hydrogenase Ech2 subunit Ech2D; Energy-converting hydrogenase Ech2 subunit Ech2E; Energy-converting hydrogenase Ech2 subunit Ech2F; HycB2 (4Fe-4S ferredoxin-type subunit)

[2] = biological target: Ech2 complex (energy-converting hydrogenase 2) of T. kivui, His-tagged on Ech2C (Thermoanaerobacter kivui); test: native gel or EMSA; purified Ech2 on nondenaturing PAGE with size standards, Coomassie stain and in-gel hydrogenase activity assay; bands of about 230, 450 and 520 kDa, only the 450 and 520 kDa bands active
[3] = biological target: Ech2 complex (energy-converting hydrogenase 2) of T. kivui, His-tagged on Ech2C (Thermoanaerobacter kivui)

Molecule: C(=NC1CCCCC1)=NC1CCCCC1 [DCCD]
- IC50 [1]: 9.9 ± 0.4 µM

- stoichiometry N [2]: 2
Molecule: Ech2 complex (energy-converting hydrogenase 2) of T. kivui, His-tagged on Ech2C, A0A097ATI1 1-625; A0A097ATF1 1-380; A0A097ATH3 1-311; A0A097ATJ2 1-141; A0A097ATJ6 1-120; A0A097ATH9 1-364; A0A097ATH4 1-156; A0A097ATH8 1-132

- Km for Fd of the H2:Fd oxidoreductase reaction of purified Ech2 (0 to 90 μM Fd) [3]: 17.8 µM
B1: ferredoxin (Fd) isolated from Clostridium pasteurianum (natural protein)
chain: MAYKIADSCVSCGACASECPVNAISQGDSIFVIDADTCIDCGNCANVCPVGAPVQE
